Results reported in article PMC4856295 (Nature, 2016).

What was measured:
[1] = molecular target: TATA-binding protein (TBP), subunit of endogenous human TFIID (human, UniProt P20226 1-339); experiment: cryo-EM structure
[2] = molecular target: the molecule itself; experiment: cryo-EM structure

Chain of TATA-binding protein (TBP), subunit of endogenous human TFIID (P20226 whole entry): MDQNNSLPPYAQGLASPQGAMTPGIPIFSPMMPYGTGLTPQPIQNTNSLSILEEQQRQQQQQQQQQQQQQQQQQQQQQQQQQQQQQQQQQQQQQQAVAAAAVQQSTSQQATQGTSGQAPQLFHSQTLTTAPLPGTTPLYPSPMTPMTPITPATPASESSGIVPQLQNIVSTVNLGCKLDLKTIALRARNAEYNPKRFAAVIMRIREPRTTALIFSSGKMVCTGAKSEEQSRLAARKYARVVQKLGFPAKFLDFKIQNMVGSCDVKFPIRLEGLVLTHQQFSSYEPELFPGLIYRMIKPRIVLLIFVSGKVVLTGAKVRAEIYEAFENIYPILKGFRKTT

binding result [1] | Binder | stoichiometry N [2]
binds | human TFIIA (conserved three-subunit core TFIIA) (complex) chain 1: ANSANTNTVPKLYRSVIEDVINDVRDIFLDDGVDEQVLMELKTLWENKLMQSRAVDG chain 2: GAEDGQVEEEPLNSEDDVSDEEGQELFDTENVVVCQYDKIHRSKNKWKFHLKDGIMNLNGRDYIFSKAIGDAEW chain 3: AYQLYRNTTLGNSLQESLDELIQSQQITPQLALQVLLQFDKAINAALAQRVRNRVNFRGSLNTYRFCDNVWTFVLNDVEFREVTELIKVDKVKIVACDGKNTGSNTTE | –
– | TAF6, subunit of endogenous human TFIID (natural protein) not shown | 2
